The record followed here is patent publication US20240376204A1 (JIANGSU HENGRUI PHARMACEUTICALS, published 2024).

Test [1] addresses T1, human PVRIG expressed on cells (human, UniProt Q6DKI7 41-326).
T1 sequence (looked up): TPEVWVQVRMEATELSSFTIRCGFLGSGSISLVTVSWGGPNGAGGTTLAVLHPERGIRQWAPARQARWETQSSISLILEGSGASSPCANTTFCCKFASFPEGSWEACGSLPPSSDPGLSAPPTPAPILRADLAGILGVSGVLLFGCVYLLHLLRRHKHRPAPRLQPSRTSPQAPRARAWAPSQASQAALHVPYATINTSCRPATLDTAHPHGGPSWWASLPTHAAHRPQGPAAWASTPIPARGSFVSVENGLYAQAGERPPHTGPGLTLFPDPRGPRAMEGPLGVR
The test is described as follows: cell-based or functional assay.

In test [2] the target is T2, human PD-1 expressed on cells (human, UniProt Q15116 25-288). The test is described as follows: cell-based or functional assay.
Test [3] concerns the target T3, his-tagged human PVRIG (h-PVRIG-his) recombinant protein (human, UniProt Q6DKI7 41-171, limits assumed).
T3 construct: Acrobiosystems; also called Human PVRIG-his; human PVRIG recombinant protein; not shown: his tag
T3 sequence (looked up): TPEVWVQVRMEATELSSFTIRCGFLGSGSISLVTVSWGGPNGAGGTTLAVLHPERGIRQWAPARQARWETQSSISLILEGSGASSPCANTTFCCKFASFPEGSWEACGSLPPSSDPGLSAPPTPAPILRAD
The test is described as follows: ELISA, plate coated with PVRIG protein (his tag). The protocol:
(§1) ELISA assays were performed. TIGIT or PVRIG protein (his tag, Acrobiosystems, PVG-H52H4) was dissolved in PBS to 1 μg/mL, and the solution was added to a 96-well plate at 100 μL/well. The plate was coated with the antigen overnight at 4° C. The plate was washed with PBST solution three times. PBST/1% BSA solution was added, and the plate was incubated at 37° C. for 1 h for blocking. After three washes with PBST solution, different concentrations of the trispecific antibodies (diluted with PBST/1% BSA solution) were added, and the plate was incubated at 37° C. for 1.5 h. The plate was washed with PBST solution three times. […] After three washes with PBST solution, TMB solution was added at 100 μL/well. After 5 min of reaction at room temperature, 50 μL of stop solution was added. OD450 values were measured using a microplate reader, and EC₅₀ was calculated.
A general note: In an ELISA, binding on a coated surface is turned into a signal by an enzyme label.

Test [4] concerns the target T4, human TIGIT recombinant protein (human, UniProt Q495A1 22-141).
T4 construct: also called human TIGIT antigen (AcroBiosystem, TIT-H52H3); TIGIT protein
T4 sequence (looked up): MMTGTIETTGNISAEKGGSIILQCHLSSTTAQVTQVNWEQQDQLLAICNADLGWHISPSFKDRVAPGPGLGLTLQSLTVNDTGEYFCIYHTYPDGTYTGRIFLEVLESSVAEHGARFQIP
The test can be described thus: ELISA, plate coated with TIGIT protein. The protocol:
as §1

The target of test [5] is T2, human PD-1 expressed on cells. The test can be described thus: cell-based or functional assay. The source holds these as a separate data set.
Test [6] deals with T1, human PVRIG expressed on cells. The test can be described thus: FACS, HEK293F cells expressing human PVRIG. The protocol:
A stably transfected HEK293F cell strain expressing the human PVRIG gene, a stably transfected CHO-K1 cell strain expressing the human TIGIT gene, and Jurkat cells expressing human PD-1 were used. The cell strain was inoculated into a 96-well plate at 2×10⁵ cells/well. The plate was centrifuged at 300 g for 5 min, and the supernatant was removed. 100 μL of test antibody was added, and the plate was incubated at 4° C. for 1 h. The plate was centrifuged, and the supernatant was removed. The plate was washed 3 times with 200 μL of wash buffer (PBS+2% FBS), and 100 μL of an Alexa Fluor 488-labeled anti-human IgG secondary antibody (Invitrogen, A-11013) diluted at 1:500 was added. The plate was incubated at 4° C. for 1 h. The plate was centrifuged, and the supernatant was removed. The plate was washed 3 times with 200 μL of wash buffer (PBS+2% FBS). The cells were resuspended in 100 μL of PBS and tested on a flow cytometer (BD FACS Calibur or BD FACS Canto_ II).
On the technique in general: Flow cytometry measures light scatter and fluorescence of single cells or particles in a stream.

T2 sequence (Q15116 25-288 limits assumed): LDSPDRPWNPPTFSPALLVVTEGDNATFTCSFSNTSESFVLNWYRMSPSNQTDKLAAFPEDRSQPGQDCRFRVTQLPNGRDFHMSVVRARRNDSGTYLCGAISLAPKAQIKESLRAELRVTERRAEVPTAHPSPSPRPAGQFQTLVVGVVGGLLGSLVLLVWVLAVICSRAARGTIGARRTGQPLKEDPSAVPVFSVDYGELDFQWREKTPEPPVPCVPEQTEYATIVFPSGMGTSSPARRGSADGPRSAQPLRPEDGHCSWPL

B1: 30H2 (Fc fusion, not shown: a dimerising Fc or GST)
chain: EVQLVESGGGLVQPGGSLRLSCAASGFTFSGDCMGWFRQAPGKGLDEGVATIDNAGRIKYADSVKGRFTISRDNAKNSLYLQMNSLRAEDTAVYYCAAGWTFGGQCSPADWGQGTQVTVSS
For the molecule B1, the “PVRIG reporter gene cell activity EC50” value in test [1] came out at 176 pM.

B2: 30H3 (Fc fusion, not shown: a dimerising Fc or GST)
chain: EVQLVESGGGLVQPGGSLRLSCAASGYSYSGDCMGWFRQAPGKGLDEGVATIDNAGRIKYADSVKGRFTISRDNAKNSLYLQMNSLRAEDTAVYYCAAGWTFGGQCSPADWGQGTQVTVSS
As to B2, the “PVRIG reporter gene cell activity EC50” value in test [1] was 78 pM.

B3: A17h1-1708-30H2-D (trispecific antibody, human IgG4 S228P, kappa)
heavy: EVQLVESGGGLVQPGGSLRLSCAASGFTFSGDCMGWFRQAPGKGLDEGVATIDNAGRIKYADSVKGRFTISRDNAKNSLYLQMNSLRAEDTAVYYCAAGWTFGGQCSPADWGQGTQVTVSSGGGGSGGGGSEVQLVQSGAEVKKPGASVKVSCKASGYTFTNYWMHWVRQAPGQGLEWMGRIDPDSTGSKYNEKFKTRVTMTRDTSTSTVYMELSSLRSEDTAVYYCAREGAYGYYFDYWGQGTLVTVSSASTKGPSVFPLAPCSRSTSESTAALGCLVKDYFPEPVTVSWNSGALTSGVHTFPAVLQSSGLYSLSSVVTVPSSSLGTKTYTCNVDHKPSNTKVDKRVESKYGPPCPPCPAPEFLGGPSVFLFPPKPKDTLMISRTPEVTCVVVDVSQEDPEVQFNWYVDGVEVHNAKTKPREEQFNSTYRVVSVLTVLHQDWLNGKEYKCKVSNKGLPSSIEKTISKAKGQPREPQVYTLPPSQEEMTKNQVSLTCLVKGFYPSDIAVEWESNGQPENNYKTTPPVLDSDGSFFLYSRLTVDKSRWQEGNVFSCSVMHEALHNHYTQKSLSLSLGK
light: DIQMTQSPSSLSASVGDRVTITCRASENIYSYLAWYQQKPGKSPKLLIYNARTLAEGVPSRFSGSGSGTDFTLTISSLQPEDFATYYCQYHSGSPLPFGGGTKVEIKRTVAAPSVFIFPPSDEQLKSGTASVVCLLNNFYPREAKVQWKVDNALQSGNSQESVTEQDSKDSTYSLSSTLTLSKADYEKHKVYACEVTHQGLSSPVTKSFNRGECGGGGSGGGGSEVQLQESGGGLVQPGGSLRLSCTASGLTFSDYSMSWYRQAPGKGRELVAIISGSGVIAHYVDSVKGRFTISRDNSKNTVYLQMRSLTPEDRAVYYCRAVSDWDDYWGQGTQVTVSS
In general, EC50 refers to the concentration that produces a half-maximal response. Consider B3, for which, in test [2], the “DC:T MLR result, 0.1 nM antibody (unit not given)” value was 115; the “DC:T MLR result, 1 nM antibody (unit not given)” value was determined as 116; the “DC:T MLR result, 10 nM antibody (unit not given)” value was 122; the “DC:T MLR result, 100 nM antibody (unit not given)” value was determined as 136. In test [3], the EC50 was determined as 88.5 pM. Further, the half-maximal effective concentration (EC50) in test [4] stood at 112 pM. In test [5], the “IC50, PD-1/PD-L1 NFAT reporter gene system” value worked out at 825 pM.

B4: 151H7 (Fc fusion, not shown: a dimerising Fc or GST)
chain: HVQLVESGGGLVQPGGSLRLSCVASASGFTYRPYCMAWFRQAPGKEREAVAGIDIFGGTTYADSVKGRFTASRDNAGFSLYLQMNSLRAEDTAVYYCAAGDSPDGRCPPLGQGLNYWGQGTMVTVSS
Turning to B4, the “PVRIG reporter gene cell activity EC50” value in test [1] was determined as 38 pM.

B5: A17h1-1708-30H2-A (trispecific antibody, human IgG4 S228P, kappa)
heavy: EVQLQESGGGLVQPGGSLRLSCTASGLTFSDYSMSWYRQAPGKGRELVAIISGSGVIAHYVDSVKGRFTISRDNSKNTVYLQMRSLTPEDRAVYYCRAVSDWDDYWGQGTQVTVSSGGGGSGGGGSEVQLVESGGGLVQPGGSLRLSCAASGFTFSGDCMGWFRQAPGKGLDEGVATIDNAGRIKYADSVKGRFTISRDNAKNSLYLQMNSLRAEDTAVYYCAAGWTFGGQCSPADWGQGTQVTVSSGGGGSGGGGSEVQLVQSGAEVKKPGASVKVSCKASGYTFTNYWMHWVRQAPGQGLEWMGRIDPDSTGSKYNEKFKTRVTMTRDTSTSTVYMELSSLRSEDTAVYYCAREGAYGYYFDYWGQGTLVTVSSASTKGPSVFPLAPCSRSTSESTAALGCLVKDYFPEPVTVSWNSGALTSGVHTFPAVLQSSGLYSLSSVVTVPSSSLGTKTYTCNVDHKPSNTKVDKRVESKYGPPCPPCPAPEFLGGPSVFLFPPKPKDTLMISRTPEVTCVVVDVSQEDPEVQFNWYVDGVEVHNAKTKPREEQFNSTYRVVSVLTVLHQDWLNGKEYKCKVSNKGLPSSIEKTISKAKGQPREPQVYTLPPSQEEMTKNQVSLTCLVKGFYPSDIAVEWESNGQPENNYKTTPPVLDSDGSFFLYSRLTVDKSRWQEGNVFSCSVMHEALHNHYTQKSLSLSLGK
light: DIQMTQSPSSLSASVGDRVTITCRASENIYSYLAWYQQKPGKSPKLLIYNARTLAEGVPSRFSGSGSGTDFTLTISSLQPEDFATYYCQYHSGSPLPFGGGTKVEIKRTVAAPSVFIFPPSDEQLKSGTASVVCLLNNFYPREAKVQWKVDNALQSGNSQESVTEQDSKDSTYSLSSTLTLSKADYEKHKVYACEVTHQGLSSPVTKSFNRGEC
As to B5, in test [2], the “DC:T MLR result, 0.1 nM antibody (unit not given)” value was determined as 118; the “DC:T MLR result, 1 nM antibody (unit not given)” value came to 118; the “DC:T MLR result, 10 nM antibody (unit not given)” value worked out at 124; the “DC:T MLR result, 100 nM antibody (unit not given)” value came out at 128. Also, the EC50 in test [3] came to 58.9 pM. Also, in test [4], the EC50 worked out at 87.5 pM. Further, the “IC50, PD-1/PD-L1 NFAT reporter gene system” value in test [5] turned out to be 801 pM.

B6: 1708-30H2 (bispecific antibody, human IgG4 S228P, kappa)
heavy: not shown
light: DIQMTQSPSSLSASVGDRVTITCRASENIYSYLAWYQQKPGKSPKLLIYNARTLAEGVPSRFSGSGSGTDFTLTISSLQPEDFATYYCQYHSGSPLPFGGGTKVEIKRTVAAPSVFIFPPSDEQLKSGTASVVCLLNNFYPREAKVQWKVDNALQSGNSQESVTEQDSKDSTYSLSSTLTLSKADYEKHKVYACEVTHQGLSSPVTKSFNRGEC
notes: Humanized anti-PVRIG/TIGIT
B6: the EC50 in test [3] came to 84.6 pM; in test [4], 116 pM.

B7: 1708-151H7 (bispecific antibody, human IgG4 S228P, kappa)
heavy: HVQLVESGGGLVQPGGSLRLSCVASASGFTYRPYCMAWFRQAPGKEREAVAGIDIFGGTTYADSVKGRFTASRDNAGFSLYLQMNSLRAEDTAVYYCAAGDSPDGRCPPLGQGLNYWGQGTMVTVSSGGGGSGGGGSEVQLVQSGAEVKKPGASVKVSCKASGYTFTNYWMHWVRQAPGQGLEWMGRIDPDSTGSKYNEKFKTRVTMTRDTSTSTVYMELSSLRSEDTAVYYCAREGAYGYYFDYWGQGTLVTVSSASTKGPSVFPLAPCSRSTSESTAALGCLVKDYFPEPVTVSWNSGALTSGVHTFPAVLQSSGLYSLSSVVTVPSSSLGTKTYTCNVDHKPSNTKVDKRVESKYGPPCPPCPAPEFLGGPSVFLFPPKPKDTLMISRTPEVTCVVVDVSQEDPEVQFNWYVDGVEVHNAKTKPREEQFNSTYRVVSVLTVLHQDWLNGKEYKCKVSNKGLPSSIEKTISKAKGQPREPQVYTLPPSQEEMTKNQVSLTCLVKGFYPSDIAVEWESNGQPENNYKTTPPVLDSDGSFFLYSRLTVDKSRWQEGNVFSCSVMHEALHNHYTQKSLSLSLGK
light: DIQMTQSPSSLSASVGDRVTITCRASENIYSYLAWYQQKPGKSPKLLIYNARTLAEGVPSRFSGSGSGTDFTLTISSLQPEDFATYYCQYHSGSPLPFGGGTKVEIKRTVAAPSVFIFPPSDEQLKSGTASVVCLLNNFYPREAKVQWKVDNALQSGNSQESVTEQDSKDSTYSLSSTLTLSKADYEKHKVYACEVTHQGLSSPVTKSFNRGEC
notes: Humanized anti-PVRIG/TIGIT
With B7, the EC50 in test [3] came to 125 pM. In addition, in test [6], a half-maximal response (EC50) required 112 pM and the EMAX was determined as 1360.

B8: A17h1-1708-30H2-C (trispecific antibody, human IgG4 S228P, kappa)
heavy: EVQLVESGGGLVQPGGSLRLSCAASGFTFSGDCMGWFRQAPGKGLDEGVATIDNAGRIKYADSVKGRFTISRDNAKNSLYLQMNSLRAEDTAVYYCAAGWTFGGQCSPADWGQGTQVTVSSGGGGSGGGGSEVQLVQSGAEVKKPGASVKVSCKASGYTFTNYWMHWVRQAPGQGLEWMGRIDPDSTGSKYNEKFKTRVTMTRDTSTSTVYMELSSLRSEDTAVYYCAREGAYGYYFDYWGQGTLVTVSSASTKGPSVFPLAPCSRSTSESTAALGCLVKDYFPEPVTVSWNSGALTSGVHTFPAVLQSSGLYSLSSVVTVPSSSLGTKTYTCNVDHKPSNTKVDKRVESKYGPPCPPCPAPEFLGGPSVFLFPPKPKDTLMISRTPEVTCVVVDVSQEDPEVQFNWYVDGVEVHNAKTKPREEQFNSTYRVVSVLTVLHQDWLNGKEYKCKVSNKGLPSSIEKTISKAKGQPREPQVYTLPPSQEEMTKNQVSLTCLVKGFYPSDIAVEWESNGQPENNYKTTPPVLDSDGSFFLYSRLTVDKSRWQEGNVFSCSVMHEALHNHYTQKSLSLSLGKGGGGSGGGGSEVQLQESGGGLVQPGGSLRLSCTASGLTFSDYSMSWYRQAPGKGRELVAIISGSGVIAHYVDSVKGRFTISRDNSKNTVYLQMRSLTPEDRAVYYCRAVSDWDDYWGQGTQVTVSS
light: DIQMTQSPSSLSASVGDRVTITCRASENIYSYLAWYQQKPGKSPKLLIYNARTLAEGVPSRFSGSGSGTDFTLTISSLQPEDFATYYCQYHSGSPLPFGGGTKVEIKRTVAAPSVFIFPPSDEQLKSGTASVVCLLNNFYPREAKVQWKVDNALQSGNSQESVTEQDSKDSTYSLSSTLTLSKADYEKHKVYACEVTHQGLSSPVTKSFNRGEC
notes: Type C
B8: in test [2], the “DC:T MLR result, 0.1 nM antibody (unit not given)” value was 133; the “DC:T MLR result, 1 nM antibody (unit not given)” value was 131; the “DC:T MLR result, 10 nM antibody (unit not given)” value stood at 123; the “DC:T MLR result, 100 nM antibody (unit not given)” value worked out at 149. The EC50 in test [3] was found to be 82.2 pM. The EC50 in test [4] was 95.1 pM. In addition, the “IC50, PD-1/PD-L1 NFAT reporter gene system” value in test [5] came to 264 pM.

B9: A17m0902-1708-151H7-01-C (trispecific antibody, human IgG4 S228P, kappa)
heavy: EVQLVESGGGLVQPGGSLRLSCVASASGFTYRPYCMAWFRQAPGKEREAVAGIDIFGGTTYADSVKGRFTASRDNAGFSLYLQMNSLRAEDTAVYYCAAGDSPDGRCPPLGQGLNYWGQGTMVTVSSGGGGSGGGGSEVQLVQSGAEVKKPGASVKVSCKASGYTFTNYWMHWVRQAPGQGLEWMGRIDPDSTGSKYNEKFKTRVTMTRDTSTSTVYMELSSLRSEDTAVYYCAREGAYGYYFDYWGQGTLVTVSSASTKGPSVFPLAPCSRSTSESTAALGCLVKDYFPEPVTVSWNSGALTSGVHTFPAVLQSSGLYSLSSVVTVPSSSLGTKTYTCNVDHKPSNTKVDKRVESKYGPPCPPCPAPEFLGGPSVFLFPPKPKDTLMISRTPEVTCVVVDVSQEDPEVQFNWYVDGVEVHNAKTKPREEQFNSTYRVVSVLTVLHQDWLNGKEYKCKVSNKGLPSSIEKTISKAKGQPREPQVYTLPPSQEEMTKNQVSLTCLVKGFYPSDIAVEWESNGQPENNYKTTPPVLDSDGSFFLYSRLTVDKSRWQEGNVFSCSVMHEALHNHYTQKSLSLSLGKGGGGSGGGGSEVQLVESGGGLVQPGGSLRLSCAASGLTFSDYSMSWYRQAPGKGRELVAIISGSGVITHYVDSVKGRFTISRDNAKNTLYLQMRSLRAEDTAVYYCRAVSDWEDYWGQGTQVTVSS
light: DIQMTQSPSSLSASVGDRVTITCRASENIYSYLAWYQQKPGKSPKLLIYNARTLAEGVPSRFSGSGSGTDFTLTISSLQPEDFATYYCQYHSGSPLPFGGGTKVEIKRTVAAPSVFIFPPSDEQLKSGTASVVCLLNNFYPREAKVQWKVDNALQSGNSQESVTEQDSKDSTYSLSSTLTLSKADYEKHKVYACEVTHQGLSSPVTKSFNRGEC
notes: Type C; first residue of the 151H7 part changed from H to E; also called 151H7 H1E trispecific
In test [6], B9 yielded an EC50 of 105 pM and an EMAX of 1550.

B10: A17m0902-1708-151H7-02-C (trispecific antibody, human IgG4 S228P, kappa)
heavy: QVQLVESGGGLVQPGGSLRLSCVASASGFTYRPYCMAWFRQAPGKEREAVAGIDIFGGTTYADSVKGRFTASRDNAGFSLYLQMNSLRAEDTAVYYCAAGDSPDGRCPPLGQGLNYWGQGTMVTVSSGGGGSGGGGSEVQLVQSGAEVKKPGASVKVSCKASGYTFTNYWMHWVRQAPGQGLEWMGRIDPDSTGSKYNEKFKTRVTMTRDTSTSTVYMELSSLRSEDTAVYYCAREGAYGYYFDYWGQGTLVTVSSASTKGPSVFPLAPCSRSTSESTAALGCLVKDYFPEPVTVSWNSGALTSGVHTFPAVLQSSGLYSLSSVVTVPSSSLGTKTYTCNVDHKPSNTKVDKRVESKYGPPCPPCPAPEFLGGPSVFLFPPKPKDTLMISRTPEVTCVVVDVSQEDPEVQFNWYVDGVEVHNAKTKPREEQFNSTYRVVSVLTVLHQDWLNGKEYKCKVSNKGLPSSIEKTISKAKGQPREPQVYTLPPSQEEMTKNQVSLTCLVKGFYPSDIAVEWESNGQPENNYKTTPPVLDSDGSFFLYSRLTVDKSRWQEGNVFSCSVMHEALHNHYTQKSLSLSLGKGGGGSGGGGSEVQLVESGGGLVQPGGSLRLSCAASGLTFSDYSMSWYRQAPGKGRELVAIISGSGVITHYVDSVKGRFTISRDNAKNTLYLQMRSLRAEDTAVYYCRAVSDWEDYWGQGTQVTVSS
light: DIQMTQSPSSLSASVGDRVTITCRASENIYSYLAWYQQKPGKSPKLLIYNARTLAEGVPSRFSGSGSGTDFTLTISSLQPEDFATYYCQYHSGSPLPFGGGTKVEIKRTVAAPSVFIFPPSDEQLKSGTASVVCLLNNFYPREAKVQWKVDNALQSGNSQESVTEQDSKDSTYSLSSTLTLSKADYEKHKVYACEVTHQGLSSPVTKSFNRGEC
notes: Type C; first residue of the 151H7 part changed from H to Q; also called 151H7 H1Q trispecific
In test [6], B10 displayed a 50% effective concentration (EC50) of 96.4 pM and an EMAX of 1520.

B11: A17m0902-1708-151H7-C (trispecific antibody, human IgG4 S228P, kappa)
heavy: not shown
light: DIQMTQSPSSLSASVGDRVTITCRASENIYSYLAWYQQKPGKSPKLLIYNARTLAEGVPSRFSGSGSGTDFTLTISSLQPEDFATYYCQYHSGSPLPFGGGTKVEIKRTVAAPSVFIFPPSDEQLKSGTASVVCLLNNFYPREAKVQWKVDNALQSGNSQESVTEQDSKDSTYSLSSTLTLSKADYEKHKVYACEVTHQGLSSPVTKSFNRGEC
notes: Type C; also called A17m0902-151H7-C
For the molecule B11, in test [6], the EC50 was found to be 94.4 pM and the EMAX came out at 1520.

B12: A17h1-1708-30H2-B (trispecific antibody, human IgG4 S228P, kappa)
heavy: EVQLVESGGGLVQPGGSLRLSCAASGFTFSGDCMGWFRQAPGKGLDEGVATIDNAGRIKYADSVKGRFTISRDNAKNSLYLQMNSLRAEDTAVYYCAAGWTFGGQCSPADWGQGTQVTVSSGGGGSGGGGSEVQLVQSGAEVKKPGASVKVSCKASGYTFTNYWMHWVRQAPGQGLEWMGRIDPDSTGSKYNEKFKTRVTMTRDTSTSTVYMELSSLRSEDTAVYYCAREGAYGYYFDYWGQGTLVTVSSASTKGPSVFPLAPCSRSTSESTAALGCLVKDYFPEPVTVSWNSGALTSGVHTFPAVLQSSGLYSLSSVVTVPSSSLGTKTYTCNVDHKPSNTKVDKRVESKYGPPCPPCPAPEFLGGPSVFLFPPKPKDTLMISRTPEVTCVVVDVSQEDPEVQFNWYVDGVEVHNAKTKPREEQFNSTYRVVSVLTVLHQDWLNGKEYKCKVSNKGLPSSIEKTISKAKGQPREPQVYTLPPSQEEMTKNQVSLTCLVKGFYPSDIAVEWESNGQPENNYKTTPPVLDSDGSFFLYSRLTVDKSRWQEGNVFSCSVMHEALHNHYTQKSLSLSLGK
light: EVQLQESGGGLVQPGGSLRLSCTASGLTFSDYSMSWYRQAPGKGRELVAIISGSGVIAHYVDSVKGRFTISRDNSKNTVYLQMRSLTPEDRAVYYCRAVSDWDDYWGQGTQVTVSSGGGGSGGGGSDIQMTQSPSSLSASVGDRVTITCRASENIYSYLAWYQQKPGKSPKLLIYNARTLAEGVPSRFSGSGSGTDFTLTISSLQPEDFATYYCQYHSGSPLPFGGGTKVEIKRTVAAPSVFIFPPSDEQLKSGTASVVCLLNNFYPREAKVQWKVDNALQSGNSQESVTEQDSKDSTYSLSSTLTLSKADYEKHKVYACEVTHQGLSSPVTKSFNRGEC
As for B12, in test [2], the “DC:T MLR result, 0.1 nM antibody (unit not given)” value amounted to 108; the “DC:T MLR result, 1 nM antibody (unit not given)” value was determined as 137; the “DC:T MLR result, 10 nM antibody (unit not given)” value was 125; the “DC:T MLR result, 100 nM antibody (unit not given)” value was 134. Moreover, the EC50 in test [3] was 58.3 pM. Further, the EC50 in test [4] is 107 pM. The “IC50, PD-1/PD-L1 NFAT reporter gene system” value in test [5] stood at 344 pM.
